Data on two substances can be found in US20210040174A1.

Test [1] concerns the target his-tagged C-terminal fragment from CA125 (UniProt Q8WXI7). Briefly: SPR (BiaCore T200): fusion protein captured on Protein A chip, his-tagged C-terminal CA125 fragment as analyte; one MCB domain (MCB domain-1X, SEQ ID: 4).
Test [2] has the same target. Kind of test: SPR (BiaCore T200): fusion protein captured on Protein A chip, his-tagged C-terminal CA125 fragment as analyte; two MCB domains (MCB domain-2X, SEQ ID: 2).

By Kd is commonly meant the equilibrium constant for the complex coming apart. Read a low Kd as higher affinity.

“MCB domain-1X fusion protein (single MCB domain of mesothelin linked to the N-terminus of the human IgG1 Fc heavy chain) (Fc fusion)”: the Kd in test [1] stood at 0.0652 nM.

Substance “MCB domain-2X fusion protein (two MCB domains of mesothelin linked via a single spacer unit to the N-terminus of the human IgG1 Fc heavy chain) (Fc fusion)” yielded a Kd in test [2] of 0.0149 nM.
